Test results published in patent US8409836B2, “Treatment of cellulosic material and enzymes useful therein” (Roal Oy, priority 2005, dated 2013).

What was measured:
[1] = substrate: O=[N+]([O-])c1ccc(O[C@@H]2O[C@H](CO)[C@@H](O[C@@H]3O[C@H](CO)[C@H](O)[C@H](O)[C@H]3O)[C@H](O)[C@H]2O)c(Cl)c1; experiment: Michaelis-Menten kinetic constants on CNPLac; assay type: biochemical, Chaetomium thermophilum; conditions: other: Ct Cel7A, 50 mM sodium phosphate pH 5.7, 22° C.
Description: (§1) The Michaelis-Menten and cellobiose inhibition constants were determined from the cellobiohydrolases produced heterologously in T. reesei (Examples 14 and 15). The enzymes were purified as described in Example 2. Protein concentrations of purified enzymes were measured by their absorption at 280 nm using a theoretical molar extinction co-efficient, which were calculated from the amino acid sequences (Gill and von Hippel, 1989).
(§2) Kinetic constants (Km and kcat values) and cellobiose inhibition constant (Ki) for Tr CBHI/Cel7A, Ta CBH/Cel7A, At CBH/Cel7A and Ct CBH/Cel7A, were measured using CNPLac (2-Chloro-4-nitrophenyl-β-D-lactoside) as substrate at ambient temperature (22° C.) in 50 mM sodium phosphate buffer, pH 5.7. For the determination of the inhibition constant (Ki), eight different substrate concentrations (31-4000 μM) in the presence of a range of five inhibitor concentrations (0-100 μM or 0-400 μM), which bracket the Ki value, were used. All experiments were performed in microtiter plates and the total reaction volume was 200 μl. The initial rates were in each case measured by continuous monitoring the release of the chloro-nitrophenolate anion (CNP, 2-Chloro-4-nitrophenolate) through measurements at 405 nm using Varioscan (Thermolabsystems) microtiter plate reader. The results were calculated from CNP standard curve (from 0 to 100 μM). Enzyme concentrations used were: Tr CBHI/Cel7A 2.46 μM, Ta CBH/Cel7A 1.58 μM, Ct CBH/Cel7A 0.79 μM and At CBH/Cel7A 3 μM. The Km and kcat constants were calculated from the fitting of the Michaelis-Menten equation using the programme of Origin. Lineweaver-Burk plots, replots (LWB slope versus [Glc2; cellobiose]) and Hanes plots were used to distinguish between competitive and mixed type inhibition and to determine the inhibition constants (Ki).

[2] = pH optimum of recombinant CBH/Cel7 proteins; assay type: biochemical; conditions: McIlvaine buffer, pH range 3.0-8.0, MUL, 50° C., 10 min
Description: The recombinant CBH/Cel7 enzyme preparations were characterized in terms of pH optimum and thermal stability. The pH optimum of the recombinant CBH/Cel7 proteins from Thermoascus aurantiacus, Chaetomium thermophilum, and Acremonium thermophilum were determined in the universal McIlvaine buffer within a pH range of 3.0-8.0 using 4-methylumbelliferyl-β-D-lactoside (MUL) as a substrate (FIG. 3A). The pH optimum for Ct Cel7A and At Cel7A enzymes is at 5.5, above which the activity starts to gradually drop. The pH optimum of the recombinant crude Ta Cel7A is at 5.0 (FIG. 3A). Thermal stability of the recombinant Cel7 enzymes was determined by measuring the MUL activity in universal McIlvaine buffer at the optimum pH with reaction time of 1 h.

[3] = Hydrolysis with CBH enzyme mixtures, Avicel; assay type: biochemical; conditions: additional enzymes EGII, bG; 48 h, 45° C., pH 5.0
Description: (§3) The performance of the purified recombinant cellobiohydrolases was evaluated in the hydrolysis studies with purified T. reesei enzymes. Hydrolysis was carried out with controlled mixtures of purified enzymes on several pre-treated substrates. […] In addition, pure T. reesei cellulases (purified as described by Suurnäkki et al., 2000) were used in the enzyme mixtures. The cellobiohydrolases used in the experiment were:
(§4) Each CBH/Cel7 to be tested (dosage 14.5 mg/g dry matter of substrate) was used either together with EGII/Cel5A of T. reesei (3.6 mg/g) or with a mixture containing T. reesei EGI/Cel7B (1.8 mg/g), EGII/Cel5A (1.8 mg/g), xylanase pI 9 (Tenkanen et al. 1992) (5000 nkat/g) and acetyl xylan esterase (AXE) (Sundberg and Poutanen, 1991) (250 nkat/g). All mixtures were supplemented with additional β-glucosidase from a commercial enzyme preparation Novozym 188 (176 nkat/g d.w.). Triplicate tubes containing the enzyme mixture and 10 mg (dry matter)/ml of the substrate suspended in 0.05 M sodium acetate were incubated in mixing by magnetic stirring at 45° C. for 48 h. Reference samples with inactivated enzymes and corresponding substrates were also prepared. The release of hydrolysis products was measured as reducing sugars with DNS method using glucose as standard (Table 30).
Crystalline cellulose (Avicel)

[4] = Hydrolysis with CBH enzyme mixtures, spruce; assay type: biochemical; conditions: additional enzymes EGII, bG; 48 h, 45° C., pH 5.0
Description: as §3, §4
Washed steam pre-treated spruce fibre (impregnation with 3% w/w SO2 for 20 min, followed by steam pre-treatment at 215° C. for 5 min), dry matter 25.9% (SPRUCE).

[5] = Hydrolysis with CBH enzyme mixtures, corn stover; assay type: biochemical; conditions: additional enzymes EGII, bG, 48 h, 45° C., pH 5.0
Description: as §3, §4
Washed wet oxidized corn stover fibre (WOCS).

[6] = Hydrolysis with CBH enzyme mixtures, willow; assay type: biochemical; conditions: additional enzymes EGII, bG, 48 h, 45° C., pH 5.0
Description: as §3, §4
Washed steam pre-treated willow fibre (pre-treatment for 14 min at 210° C.), dry matter 23.0% (WILLOW).

[7] = substrate: O=[N+]([O-])c1ccc(O[C@@H]2O[C@H](CO)[C@@H](O[C@@H]3O[C@H](CO)[C@H](O)[C@H](O)[C@H]3O)[C@H](O)[C@H]2O)c(Cl)c1; experiment: Michaelis-Menten kinetic constants on CNPLac; assay type: biochemical, Trichoderma reesei; conditions: other: Tr Cel7A, 50 mM sodium phosphate pH 5.7, 22° C.
Description: as §1, §2

[8] = Xylanase activity on birch xylan; assay type: biochemical
Description: (§5) The specific activity of the preparations was determined using 4-methylumbelliferyl-β-D-lactoside (MUL), 4-methylumbelliferyl-β-D-cellobioside (MUG2) or 4-methylumbelliferyl-β-D-cellotrioside (MUG3) as substrate (van Tilbeurgh et al., 1988) in 0.05 M sodium citrate buffer pH 5 at 50° C. for 10 min. Endoglucanase and xylanase activities were determined by standard procedures (according to IUPAC, 1987) using carboxymethyl cellulose (CMC) and birch glucuronoxylan (Bailey et al., 1992) as substrates. Specific activity against Avicel was calculated on the basis of reducing sugars formed in a 24 h reaction at 50° C., pH 5.0, with 1% substrate and 0.25 μM enzyme dosage. The protein content of the purified enzyme preparations was measured according to Lowry et al., 1951. To characterize the end products of hydrolysis, soluble sugars liberated in 24 h hydrolysis experiment, as described above, were analysed by HPLC (Dionex). Purified cellobiohydrolase I (CBHI/Cel7A) of Trichoderma reesei was used as a reference.
Acremonium thermophilum ALKO4245 was grown as described in Example 1. The culture supernatant was incubated at 70° C. for 24 hours after which, it was concentrated by ultrafiltration. The pure xylanase was obtained by sequential purification with hydrophobic interaction and cation exchange chromatography followed by gel filtration. The xylanase activity was determined using birch xylan as substrate (procedure of IUPAC 1987). Protein was assayed by BioRad Protein Assay Kit (Bio-Rad Laboratories) using bovine serum albumin as standard.
Thermoascus aurantiacus ALKO4242 was grown as described in Example 1. The pure xylanase was obtained by sequential purification with hydrophobic interaction, anion, and cation exchange chromatography followed by gel filtration. The xylanase activity was determined using birch xylan as substrate (procedure of IUPAC 1987). Protein was assayed by BioRad Protein Assay Kit (Bio-Rad Laboratories) using bovine serum albumin as standard.

[9] = Specific activity on MUG2; assay type: biochemical; conditions: purified xylanase, 50° C. pH 5.0 10 min
Description: as §5

[10] = Specific activity on MUG3; assay type: biochemical; conditions: purified xylanase, 50° C. pH 5.0 10 min
Description: as §5

[11] = Specific activity on MUL; assay type: biochemical; conditions: purified xylanase, 50° C. pH 5.0 10 min
Description: as §5

B1: Chaetomium thermophilum ALKO4265 cellobiohydrolase Ct Cel7A (Ct CBH/Cel7A), recombinant, SEQ ID NO: 8 (Thermochaetoides thermophila) (protein)
chain: QQACSLTAENHPSLTWKRCTSGGSCSTVNGAVTIDANWRWTHTVSGSTNCYTGNQWDTSLCTDGKSCAQTCCVDGADYSSTYGITTSGDSLNLKFVTKHQYGTNVGSRVYLMENDTKYQMFELLGNEFTFDVDVSNLGCGLNGALYFVSMDADGGMSKYSGNKAGAKYGTGYCDAQCPRDLKFINGEANVGNWTPSTNDANAGFGRYGSCCSEMDVWEANNMATAFTPHPCTTVGQSRCEADTCGGTYSSDRYAGVCDPDGCDFNAYRQGDKTFYGKGMTVDTNKKMTVVTQFHKNSAGVLSEIKRFYVQDGKIIANAESKIPGNPGNSITQEYCDAQKVAFSNTDDFNRKGGMAQMSKALAGPMVLVMSVWDDHYANMLWLDSTYPIDQAGAPGAERGACPTTSGVPAEIEAQVPNSNVIFSNIRFGPIGSTVPGLDGSNPGNPTTTVVPPASTSTSRPTSSTSSPVSTPTGQPGGCTTQKWGQCGGIGYTGCTNCVAGTTCTQLNPWYSQCL
Km [1]: 1960 µM
kcat [1]: 0.313 s⁻¹
kcat/Km [1]: 158 M⁻¹ s⁻¹

B2: Ta Cel7A: cellobiohydrolase of Thermoascus aurantiacus ALKO4242, gene Ta cel7A, amino acid SEQ ID NO: 2, no CBD (protein)
chain: MYQRALLFSFFLAAARAQQAGTVTAENHPSLTWQQCSSGGSCTTQNGKVVIDANWRWVHTTSGYTNCYTGNTWDTSICPDDVTCAQNCALDGADYSGTYGVTTSGNALRLNFVTQSSGKNIGSRLYLLQDDTTYQIFKLLGQEFTFDVDVSNLPCGLNGALYFVAMDADGGLSKYPGNKAGAKYGTGYCDSQCPRDLKFINGQANVEGWQPSANDPNAGVGNHGSCCAEMDVWEANSISTAVTPHPCDTPGQTMCQGDDCGGTYSSTRYAGTCDPDGCDFNPYRQGNHSFYGPGQIVDTSSKFTVVTQFITDDGTPSGTLTEIKRFYVQNGKVIPQSESTISGVTGNSITTEYCTAQKAAFGDNTGFFTHGGLQKISQALAQGMVLVMSLWDDHAANMLWLDSTYPTDADPDTPGVARGTCPTTSGVPADVESQYPNSYVIYSNIKVGPINSTFTAN
pH optimum [2]: 5.0
Hydrolysis products as reducing sugars, Avicel [3]: 2.0 mg/mL
Hydrolysis products as reducing sugars, SPRUCE [4]: 2.0 mg/mL
Hydrolysis products as reducing sugars, WOCS ([5]; EGI, XYL, AXE): 4.3 mg/mL
Hydrolysis products as reducing sugars, WOCS [5]: 2.8 mg/mL
Hydrolysis products as reducing sugars, WILLOW ([6]; EGI, XYL, AXE): 2.8 mg/mL
Hydrolysis products as reducing sugars, WILLOW [6]: 2.0 mg/mL

B3: Trichoderma reesei cellobiohydrolase I Tr Cel7A (Tr CBHI/Cel7A) (Trichoderma reesei RUT C-30) (protein)
chain: QSACTLQSETHPPLTWQKCSSGGTCTQQTGSVVIDANWRWTHATNSSTNCYDGNTWSSTLCPDNETCAKNCCLDGAAYASTYGVTTSGNSLSIGFVTQSAQKNVGARLYLMASDTTYQEFTLLGNEFSFDVDVSQLPCGLNGALYFVSMDADGGVSKYPTNTAGAKYGTGYCDSQCPRDLKFINGQANVEGWEPSSNNANTGIGGHGSCCSEMDIWEANSISEALTPHPCTTVGQEICEGDGCGGTYSDNRYGGTCDPDGCDWNPYRLGNTSFYGPGSSFTLDTTKKLTVVTQFETSGAINRYYVQNGVTFQQPNAELGSYSGNELNDDYCTAEEAEFGGSSFSDKGGLTQFKKATSGGMVLVMSLWDDYYANMLWLDSTYPTNETSSTPGAVRGSCSTSSGVPAQVESQSPNAKVTFSNIKFGPIGSTGNPSGGNPPGGNPPGTTTTRRPATTTGSSPGPTQSHYGQCGGIGYSGPTVCASGTTCQVLNPYYSQCL
Km [7]: 520 µM
kcat [7]: 0.0433 s⁻¹
kcat/Km [7]: 83.3 M⁻¹ s⁻¹

B4: At XYN_60: xylanase of Acremonium thermophilum ALKO4245, gene At xyn10A, amino acid SEQ ID NO: 20 (protein)
chain: MRAKQLLAAGLLAPASVSAQLNSLAVAAGLKYFGTAVREANVNGDATYMSYVNNKSEFGQVTPENGQKWDSTEPSQGQFSYSQGDIVPGVAKKNGQVLRCHTLVWYSQLPSWVSSGSWTRATLQSVIETHISNVMGHYKGQCYAWDVVNEAINDDGTWRTSVFYNTFNTDYLAIAFNAAKKADAGAKLYYNDYNLEYNGAKTNTAVQLVQIVQQAGAPIDGVGFQGHLIVGSTPSRSSLATALKRFTALGLEVAYTELDIRHSSLPPSSAALATQGNDFASVVGSCLDVAGCVGITIWGFTDKYSWVPDTFPGSGAALLYDANYSKKPAWTSVSSVLAAKATNPPGGGNPPPVTTTTTTTTTSKPSQPTTTTTTTSPQGPQQTHWGQCGGIGWTGPQSCQSPWTCQKQNDWYSQCL
Relative activity at 60° C. as compared to 50° C. ([8]; 10 min, pH 5.0): about 1.2 fold
Relative activity at 70° C. as compared to 50° C. ([8]; 10 min, pH 5.0): ~1.65 fold
Specific activity on birch xylan ([8]; purified xylanase, 50° C., procedure of IUPAC 1987): 1800 nkat/mg
Specific activity against MUG2 [9]: 54 nkat/mg
Specific activity against MUG3 [10]: 78 nkat/mg
Specific activity against MUL [11]: 33 nkat/mg
